Assay results from the supplement of paper PMC12042874.
± gives the uncertainty stated by the source.

Assay: amyloid nucleation score (Sup35N fusion, yeast selection) (log enrichment); library NNK2; higher = more nucleation; inactive = no reads after selection
In short: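 For the nucleation score, DiMSum gave the log enrichment of output over input reads, centred on the mode score of non-aggregating sequences. Psi-negative yeast expressing Sup35N fused to peptides of 20 random codons were induced with 100 μM copper sulfate for 24 hours and grown 7 days at 30°C on medium lacking adenine and uracil. Input and output plasmid inserts were Illumina-sequenced, and sequences with under 100 input reads were excluded.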
In the case of CNGYTKRRYTRYSYKWFAVA, the amyloid nucleation score is reported as -0.15 ± 0.45. In the case of CNHIRSKVKVVVCTGHCAVF, the amyloid nucleation score is reported as 4.62 ± 0.11. CNMGLRYTSYLI gave an amyloid nucleation score of -0.212 ± 0.34. For CNSHM, the amyloid nucleation score was 2.9 ± 0.072. With CPCNGTNSLRLAYGYTGNNS the amyloid nucleation score was “inactive”. Substance CPFSYEPNFPLIGRGNFAIW has an amyloid nucleation score of -0.987 ± 1. In the case of CPIRMLSKNGCSTHSFNMAW, the amyloid nucleation score is reported as 0.241 ± 0.8. For CPLPIVSFKTLINLNMMYKS, the amyloid nucleation score was -0.269 ± 0.43. In the case of CPNLNTFTLFPELGNLYLHR, the amyloid nucleation score is reported as 0.329 ± 0.8. CQLLMFGSMYVHSYERGTYW gave an amyloid nucleation score of 2.67 ± 0.064. CQMYWYFWPGVTRFAR gave an amyloid nucleation score of 8.633 ± 0.03. CQTHPYYVICFQAVKKCWES showed an amyloid nucleation score of -0.899 ± 0.56. In the case of CRCVR, the amyloid nucleation score is reported as 3.38 ± 0.077. With CRDLKFYAGTRWGKCCMYSA the amyloid nucleation score was -0.476 ± 0.32. With CREEDGLLDVSYKRSDMGGS the amyloid nucleation score was -0.267 ± 0.65. For CRFRGLRYNRWDQNDVFAGV, the amyloid nucleation score was 0.349 ± 0.44. CRRCTIGLISDRGVLAAEES showed an amyloid nucleation score of -0.403 ± 0.63. With CRRFSEYNVLCSDLNPIMVL the amyloid nucleation score was 0.404 ± 0.66. CRVFWKLKKRSIMHLPFDSG showed an amyloid nucleation score of 1.32 ± 0.34. In the case of CSALLYW, the amyloid nucleation score is reported as 1.29 ± 0.61. Substance CSCMDRFL has an amyloid nucleation score of 1.41 ± 0.15. Substance CSCNRLDYWAVNGRARRFKL has an amyloid nucleation score of 0.932 ± 0.81. For CSFNKTALIAFNSNGGEYEH, the amyloid nucleation score was -2.66 ± 0.75. CSGHNRYYPRRGMDQHMLVF showed an amyloid nucleation score of 0.266 ± 0.2. With CSHITYQMCFILLNTAYFSH the amyloid nucleation score was -0.159 ± 1.1. Substance CSIMFIG has an amyloid nucleation score of 0.858 ± 0.47. With CSIPFSVWDCLSWYCKNIRI the amyloid nucleation score was -1.46 ± 0.62. In the case of CSITRLGSVHYLSRYIFV, the amyloid nucleation score is reported as 3.74 ± 0.083. Substance CSKRSQTKVITHICARGEVS has an amyloid nucleation score of 0.827 ± 0.28. Substance CSLLVTLWE has an amyloid nucleation score of 0.554 ± 0.23. CSSFTQGCKCSF gave an amyloid nucleation score of -0.139 ± 0.37. For CSSRNILDWKFVFFVCYFT, the amyloid nucleation score was 3.41 ± 0.12. Substance CTFPALSLPGPVSTQQSSGQ has an amyloid nucleation score of 3.47 ± 0.06. Work on CTIIFNLLLAD yielded an amyloid nucleation score of 7.396 ± 0.055. In the case of CTLLTNITLFRGLHGTKFFC, the amyloid nucleation score is reported as 2.43 ± 0.14. For CTNMREFKGSLKAHIVLVVV, the amyloid nucleation score was -0.479 ± 0.32. Substance CTPDLLSVNFDVVVLQW has an amyloid nucleation score of -0.58 ± 0.55. With CTTFSFADIEFVMKRTRAIL the amyloid nucleation score was “inactive”. In the case of CVFPRFYIHDFSTLGTMYTL, the amyloid nucleation score is reported as 4.24 ± 0.12. With CVKKEIMLFAFDALKSLLGR the amyloid nucleation score was -0.742 ± 1.1. In the case of CVLHEPLYS, the amyloid nucleation score is reported as -0.432 ± 0.3. In the case of CVLMAMNFRCLNSTETTLLG, the amyloid nucleation score is reported as “inactive”. Work on CVNVTLASFQVLNNPLHRSF yielded an amyloid nucleation score of 4.896 ± 0.041. Work on CVPVYVKRIECHLPSGCTAV yielded an amyloid nucleation score of -0.345 ± 0.3. CVRDTLIETFHSVFNPHRRV gave an amyloid nucleation score of 0.983 ± 0.29. In the case of CVSGNMYRLGVINW, the amyloid nucleation score is reported as 0.156 ± 0.29. CWFGCVPDLTTGLGASCGRD showed an amyloid nucleation score of 0.606 ± 0.2. With CWFSTTGYDPLEPSFNLVLR the amyloid nucleation score was -1.58 ± 0.54. In the case of CWFYVMGLWHVLLLCWS, the amyloid nucleation score is reported as “inactive”. In the case of CWKVREENRVVRCTHSYFLE, the amyloid nucleation score is reported as -1.03 ± 0.55. In the case of CWLEKLGGSRCFNFNDNKLP, the amyloid nucleation score is reported as -1.19 ± 0.75. CWQMRGKLFHS gave an amyloid nucleation score of 0.983 ± 0.14. CWRRDNNRGCARRSGVAPAK gave an amyloid nucleation score of 0.495 ± 0.24. Work on CYHSQNDCHKVTWCFPYLAH yielded an amyloid nucleation score of -0.449 ± 0.44. For CYLLN, the amyloid nucleation score was -0.805 ± 0.44. Work on CYNALWLFGNHAKTAHGLGH yielded an amyloid nucleation score of 0.709 ± 0.48. With CYRDMALGGCNVNVQLFVEA the amyloid nucleation score was -0.049 ± 0.54. Work on CYRNAT yielded an amyloid nucleation score of 0.475 ± 0.2. With CYSLYLRS the amyloid nucleation score was -0.018 ± 1.1. DAGDVRQVKEAGLMAGS showed an amyloid nucleation score of 0.527 ± 0.21. For DALVFSPCRALWTLLSVCEG, the amyloid nucleation score was 0.896 ± 0.3. For DAVDFGISVSIHRSVREGWR, the amyloid nucleation score was 4.89 ± 0.11. DAYQEKCLCFVHRCYAQGRC showed an amyloid nucleation score of 0.163 ± 0.39. For DCHRNGSFRGKDGDVLYRSS, the amyloid nucleation score was -0.397 ± 0.78. DCHSMQFVVSFNT showed an amyloid nucleation score of -0.705 ± 1.1. DCNTCKDKPWNAINQPNKKA showed an amyloid nucleation score of 0.121 ± 0.23. Substance DDERYDVPLWSFGVRYYISG has an amyloid nucleation score of -0.384 ± 0.54. DDFRQVKREDWHWSLSAVLF showed an amyloid nucleation score of 0.36 ± 0.62. Work on DDRIGSRVYVRVMNTKFFIK yielded an amyloid nucleation score of 6.406 ± 0.045. DDYVWCSYRLMFKSSHEALL showed an amyloid nucleation score of -1.24 ± 1.1. For DEMVDAFYYSAM, the amyloid nucleation score was 0.35 ± 0.8. DENFHAEGWRCFVYPFY showed an amyloid nucleation score of -0.373 ± 0.27. DFCRQLWTKNKNVLRFICNS gave an amyloid nucleation score of -0.342 ± 1. DFFRRFI gave an amyloid nucleation score of -0.742 ± 0.48. DFMIKSISVLFTVSISSNRV showed an amyloid nucleation score of -1.69 ± 0.73. DFPRRWSWFITRESWGVWRT gave an amyloid nucleation score of 1.65 ± 0.34. In the case of DFTFWCEYSSSPVKKYVIDC, the amyloid nucleation score is reported as 0.736 ± 0.18. For DFVIESLNMYYWCTRGVVKK, the amyloid nucleation score was “inactive”. DFWTARFGIGCCGVPCDRFF gave an amyloid nucleation score of -0.507 ± 0.79. Work on DFYACTWKDSCCGHEGRSAC yielded an amyloid nucleation score of 0.634 ± 0.43. In the case of DGDLTLNWVRSRLPLKNFRG, the amyloid nucleation score is reported as 0.144 ± 0.54. With DGEYPHQYSLEVLLLRLRH the amyloid nucleation score was 5.071 ± 0.049. Work on DGFRVCDMFGHAWGVENIPF yielded an amyloid nucleation score of 0.086 ± 0.31. In the case of DGGNDWRTKYSGTPVVWGTV, the amyloid nucleation score is reported as 1.73 ± 0.13. DGSDREPKVSALWLHVRRTA gave an amyloid nucleation score of 2.17 ± 0.13. For DGTYISKVNSRCVEDGARPR, the amyloid nucleation score was 1.38 ± 0.34. With DGVCYSRVNYIPISMHVVYR the amyloid nucleation score was 4.87 ± 0.08. For DGVSAFVCTFRDAVVRSAME, the amyloid nucleation score was 4.29 ± 0.045. DGYIELS showed an amyloid nucleation score of 0.302 ± 0.41. In the case of DHFYWSNLGG, the amyloid nucleation score is reported as “inactive”. With DHMRHGCGYHLWFSGLSWRF the amyloid nucleation score was “inactive”. Substance DHVYICSSFAPKSTAMLC has an amyloid nucleation score of 1.55 ± 0.38. In the case of DIFALYFA, the amyloid nucleation score is reported as -1.16 ± 0.63. DIIFVDALMSVTSVQQNLH gave an amyloid nucleation score of -0.388 ± 0.55. With DIMLAPHNSVDNGSRKEYGA the amyloid nucleation score was 0.424 ± 0.64. DIMYPYWMVR showed an amyloid nucleation score of -0.667 ± 0.76. For DIPPKDLLGVFIDDEIREYC, the amyloid nucleation score was -0.436 ± 0.76. DIRCDLGRVFN showed an amyloid nucleation score of -0.17 ± 0.79. For DIRSRINMLRYTFF, the amyloid nucleation score was “inactive”. In the case of DIYLLKIDRSGKCWPTTVDL, the amyloid nucleation score is reported as -0.067 ± 0.41. Substance DKGWLANDNLDKDLHQIPYA has an amyloid nucleation score of 0.515 ± 0.35. Substance DKHYINASVSHEPSKNR has an amyloid nucleation score of -0.724 ± 0.46. With DKPTCETTV the amyloid nucleation score was -0.659 ± 0.49. In the case of DKPVSTH, the amyloid nucleation score is reported as -0.861 ± 1. Work on DKRPALFVYSVCRVSSIR yielded an amyloid nucleation score of -1.26 ± 0.49. For DKSAVMVFNRRYVPWFGIRY, the amyloid nucleation score was “inactive”. DKSSMYSSTMRPL gave an amyloid nucleation score of 0.06 ± 0.65. With DKVFDLTQMGFL the amyloid nucleation score was “inactive”. DKYGFSSVSGVTEDFVDGLM gave an amyloid nucleation score of 0.736 ± 0.6. With DLAPLLR the amyloid nucleation score was 0.132 ± 0.56. Work on DLDFIKDLTAKLY yielded an amyloid nucleation score of -0.183 ± 1. In the case of DLKRTFR, the amyloid nucleation score is reported as -0.487 ± 0.79. Work on DLLGIEPTTVCFYFDTDIRH yielded an amyloid nucleation score of 2.9 ± 0.07. DLRRDQRATTERGRVPVVKH gave an amyloid nucleation score of 4.817 ± 0.045. DLTCRTSLSRGWKVLASSNG gave an amyloid nucleation score of 0.413 ± 0.31. DLTHWSANSTCSSCVEFHLR showed an amyloid nucleation score of 3.99 ± 0.086. With DLVYDCKGFCIRLLLG the amyloid nucleation score was -1.63 ± 1. With DLYVLSWLYLGGEPNCVRF the amyloid nucleation score was 0.446 ± 0.26. With DMFRWNSYCSIVMLYCYAYD the amyloid nucleation score was 4.62 ± 0.063. With DMGNDLRDRVRGFSALMLWR the amyloid nucleation score was “inactive”. In the case of DMQGYFCSLTLMFMFRPRIM, the amyloid nucleation score is reported as “inactive”. In the case of DNEMRYGDRSSVFI, the amyloid nucleation score is reported as 1.32 ± 0.24. With DNLLSPTSRKFRVDTILL the amyloid nucleation score was -0.256 ± 0.4. In the case of DPRLSSLSCMGRWHHNYHAS, the amyloid nucleation score is reported as 0.772 ± 0.5. DPVRWRVKFFFYDSEVCGPL gave an amyloid nucleation score of 2.73 ± 0.17.
